Reference: US20020012669A1

Biological target: CRF2-4/zcytor11 heterodimeric receptor on BaF3/CRF2-4/zcytor11 cells (human) (UniProt Q8N6P7)
Experiment: cell-based or functional assay

Sequence of CRF2-4/zcytor11 heterodimeric receptor on BaF3/CRF2-4/zcytor11 cells (human) (Q8N6P7 16-574 limits assumed, chain 1 of 2): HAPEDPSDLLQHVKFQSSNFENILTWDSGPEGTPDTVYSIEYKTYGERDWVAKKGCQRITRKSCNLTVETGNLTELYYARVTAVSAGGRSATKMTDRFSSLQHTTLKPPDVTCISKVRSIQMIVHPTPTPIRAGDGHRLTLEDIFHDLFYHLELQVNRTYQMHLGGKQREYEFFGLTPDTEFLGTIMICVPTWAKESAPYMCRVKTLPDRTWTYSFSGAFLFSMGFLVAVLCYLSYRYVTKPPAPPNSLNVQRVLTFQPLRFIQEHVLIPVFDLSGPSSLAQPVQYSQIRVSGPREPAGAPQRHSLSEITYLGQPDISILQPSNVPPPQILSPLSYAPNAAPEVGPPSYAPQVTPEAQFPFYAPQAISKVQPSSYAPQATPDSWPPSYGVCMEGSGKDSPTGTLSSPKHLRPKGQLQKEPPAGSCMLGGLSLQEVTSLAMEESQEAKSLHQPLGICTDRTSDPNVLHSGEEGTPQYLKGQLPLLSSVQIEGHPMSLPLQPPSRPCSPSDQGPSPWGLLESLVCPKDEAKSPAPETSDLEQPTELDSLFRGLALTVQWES
Sequence of CRF2-4/zcytor11 heterodimeric receptor on BaF3/CRF2-4/zcytor11 cells (human) (Q08334 20-325 limits assumed, chain 2 of 2, further chain): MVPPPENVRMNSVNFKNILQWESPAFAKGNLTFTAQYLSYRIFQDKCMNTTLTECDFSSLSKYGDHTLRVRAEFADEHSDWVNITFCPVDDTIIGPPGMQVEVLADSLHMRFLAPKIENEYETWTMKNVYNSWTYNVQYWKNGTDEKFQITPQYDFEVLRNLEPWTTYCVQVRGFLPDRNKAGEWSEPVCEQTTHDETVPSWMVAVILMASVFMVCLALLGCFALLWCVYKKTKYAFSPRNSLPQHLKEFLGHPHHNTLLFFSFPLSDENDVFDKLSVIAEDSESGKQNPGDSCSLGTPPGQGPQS

Alamar Blue proliferation of BaF3/CRF2-4/zcytor11 cells, IL-TIF-CEE at 0.06 ng/ml (fold induction): 2
Alamar Blue proliferation of BaF3/CRF2-4/zcytor11 cells, IL-TIF-CEE at 50 ng/ml (fold over background): 15
Substance: IL-TIF-CEE (human IL-TIF with C-terminal Glu-Glu tag) (from UniProt Q9GZX6 34-179) (ligand)
